What all share (details): chain copies: 2; label: 5'-biotin on the ERE strand; blunt
For series [1], the target named is T1, estrogen receptor alpha (ERα), purified (UniProt P03372 1-595). Nature of the series: SPR; SPR: 40 mM HEPES-KOH pH 7.4, 10 mM MgCl2, 200 mM KCl, 0.2% Triton X-100, 2 mM DTT, room temperature; ERα 58-708 nM (relative binding averaged over concentrations).
The target in series [2] is T1, estrogen receptor alpha (ERα), purified. Nature of the series: SPR; not significantly perturbed; SPR: 40 mM HEPES-KOH pH 7.4, 10 mM MgCl2, 200 mM KCl, 0.2% Triton X-100, 2 mM DTT, room temperature; ERα 58-708 nM (relative binding averaged over concentrations). (In SPR one partner is held on a chip, and binding of the other changes the refractive index at the surface.)

Series [3] has the same target. Nature of the series: SPR; binding disrupted by about 40%; SPR: 40 mM HEPES-KOH pH 7.4, 10 mM MgCl2, 200 mM KCl, 0.2% Triton X-100, 2 mM DTT, room temperature; ERα 58-708 nM (relative binding averaged over concentrations).

Where a chain is given by its changes, count along the chain named.

T1 sequence (P03372 whole entry): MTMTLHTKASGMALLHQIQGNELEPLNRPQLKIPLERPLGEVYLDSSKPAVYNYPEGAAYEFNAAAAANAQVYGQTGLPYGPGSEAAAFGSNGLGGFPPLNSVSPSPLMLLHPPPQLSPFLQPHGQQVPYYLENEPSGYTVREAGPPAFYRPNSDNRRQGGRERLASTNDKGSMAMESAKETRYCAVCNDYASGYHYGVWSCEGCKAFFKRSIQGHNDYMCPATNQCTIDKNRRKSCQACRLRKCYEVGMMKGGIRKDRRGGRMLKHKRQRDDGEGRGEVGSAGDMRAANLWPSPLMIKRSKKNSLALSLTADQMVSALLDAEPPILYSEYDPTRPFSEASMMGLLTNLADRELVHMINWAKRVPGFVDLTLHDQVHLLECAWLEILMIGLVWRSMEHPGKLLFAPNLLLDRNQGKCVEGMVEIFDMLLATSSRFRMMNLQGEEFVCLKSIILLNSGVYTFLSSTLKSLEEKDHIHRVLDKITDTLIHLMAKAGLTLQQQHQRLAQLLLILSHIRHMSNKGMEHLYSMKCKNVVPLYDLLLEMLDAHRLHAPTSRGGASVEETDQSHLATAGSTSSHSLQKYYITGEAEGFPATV

B1: GREB1 ERE wildtype (dsDNA)
DNA 1: TGTGGCAACTGGGTCATTCTGACCTAGAAGCAAC
DNA 2: GTTGCTTCTAGGTCAGAATGACCCAGTTGCCACA
As to B1, the binding signal in series [1] is 100 % of wild type.

B2: mutant 4 (outside the 3-bp flank, C to G) (dsDNA)
DNA 1: B1 DNA 1 with C6G
DNA 2: B1 DNA 2 with G29C
In the case of B2, the binding result in series [2] is “binds”.

B3: mutant 1 (conserved 3' G to A) (dsDNA)
DNA 1: B1 DNA 1 with G27A
DNA 2: B1 DNA 2 with C8T
Take B3: the binding signal in series [3] was ~60 % of wild type.

The record behind these values is paper PMC1794554, “Multiplatform genome-wide identification and modeling of functional human estrogen receptor binding sites”.
